Publication PMC3760018 (European journal of immunology, 2013)
Positions count from the first letter of the chain named. Numbers in names are those of the source.

B1: recombinant C4BP α-chain WT (natural protein, human, UniProt P04003 49-597, looked up)
chain: NCGPPPTLSFAAPMDITLTETRFKTGTTLKYTCLPGYVRSHSTQTLTCNSDGEWVYNTFCIYKRCRHPGELRNGQVEIKTDLSFGSQIEFSCSEGFFLIGSTTSRCEVQDRGVGWSHPLPQCEIVKCKPPPDIRNGRHSGEENFYAYGFSVTYSCDPRFSLLGHASISCTVENETIGVWRPSPPTCEKITCRKPDVSHGEMVSGFGPIYNYKDTIVFKCQKGFVLRGSSVIHCDADSKWNPSPPACEPNSCINLPDIPHASWETYPRPTKEDVYVVGTVLRYRCHPGYKPTTDEPTTVICQKNLRWTPYQGCEALCCPEPKLNNGEITQHRKSRPANHCVYFYGDEISFSCHETSRFSAICQGDGTWSPRTPSCGDICNFPPKIAHGHYKQSSSYSFFKEEIIYECDKGYILVGQAKLSCSYSHWSAPAPQCKALCRKPELVNGRLSVDKDQYVEPENVTIQCDSGYGVVGPQSITCSGNRTWYPEVPKCEWETPEGCEQVLTGKRLMQCLPNPEDVKMALEVYKLSLEIEQLELQRDSARQSTLDKEL
B2: recombinant C4BP α-chain I126T (natural protein, human, UniProt P04003 49-597, looked up)
chain: B1 chain with I78T
B3: recombinant C4BP α-chain D284E (natural protein, human, UniProt P04003 49-597, looked up)
chain: B1 chain with D236E
B4: recombinant C4BP α-chain G423E (natural protein, human, UniProt P04003 49-597, looked up)
chain: B1 chain with G375E
B5: recombinant C4BP α-chain I224T (natural protein, human, UniProt P04003 49-597, looked up)
chain: B1 chain with I176T
B6: recombinant C4BP α-chain I300T (natural protein, human, UniProt P04003 49-597, looked up)
chain: B1 chain with I252T
B7: recombinant C4BP α-chain R120H (natural protein, human, UniProt P04003 49-597, looked up)
chain: B1 chain with R72H

Target: the molecule itself
Assay: non-reducing SDS-PAGE

Stoichiometry N, 6:
B1, B2, B3, B4, B5, B6, B7

target: recombinant C4BP α-chain P4Q (human) (UniProt P04003); assay: non-reducing SDS-PAGE

Stoichiometry N, 6:
recombinant C4BP α-chain P4Q (from UniProt P04003 49-597) (natural protein)
